Measurements from patent publication US20200297863A1, “ANTI-EGFR ANTIBODY DRUG CONJUGATES (ADC) AND USES THEREOF” (AbbVie Inc., priority 2017, published 2020).

Experiments:
[1] = system: LoVo; test: LoVo colorectal adenocarcinoma xenograft model; format: in vivo, mice; details: administered at a much higher dose than the PBD conjugates
Experimental: Numbers in parentheses represent dose in mg/kg. Arrows represent days of dosing.
Both conjugates were administered at 0.5mg/kg on a q7dx6 regimen (where mice were dosed every 7 days for 6 weeks).

[2] = system: CTG-9786; test: CTG-9786 patient-derived head and neck cancer xenograft model; format: in vivo; details: much higher dose than the PBD ADCs
From the text: (§1) Numbers in parentheses represent dose in mg/kg, and arrows represent days of dosing.

[3] = system: CTG-0162; test: CTG-0162 patient-derived NSCLC xenograft model; format: in vivo; details: dosed ten-fold higher than the PBD ADCs
From the text: as §1

B1: AbA-MMAE: AbA conjugated to monomethyl auristatin E via a cleavable valine-citrulline (VC) linker; DAR about 3 (conjugate, chains of the INN, looked up)
VH: EVQLQESGPGLVKPSQTLSLTCTVSGYSISRDFAWNWIRQPPGKGLEWMGYISYNGNTRYQPSLKSRITISRDTSKNQFFLKLNSVTAADTATYYCVTASRGFPYWGQGTLVTVSS
VL: DIQMTQSPSSMSVSVGDRVTITCHSSQDINSNIGWLQQKPGKSFKGLIYHGTNLDDGVPSRFSGSGSGTDYTLTISSLQPEDFATYYCVQYAQFPWTFGGGTKLEIK
modifications: vc-MMAE payload, DAR about 3
tumor response [1]: active in this model, with activity similar to that observed with Ab1(S239C)-PBD
inhibition of tumor growth [2]: effective, but required a much higher dose
inhibition of tumor growth [3]: less efficacious
